Source: paper PMC8565327, “A dominant-negative SOX18 mutant disrupts multiple regulatory layers essential to transcription factor activity” (Nucleic Acids Research, 2021)

How the values were obtained:
[1] = target: T1, SOX7-eGFP, Q9BT81; test: cross-raster image correlation spectroscopy (cRICS); living HeLa cell nuclei, 37°C, transiently transfected; two colours (JF549 + JF646 on HaloTag, eGFP + JF646, or snap646 + JF549); fraction of molecules that move together; settings: other: cross-raster image correlation spectroscopy (cRICS)
T1 chain: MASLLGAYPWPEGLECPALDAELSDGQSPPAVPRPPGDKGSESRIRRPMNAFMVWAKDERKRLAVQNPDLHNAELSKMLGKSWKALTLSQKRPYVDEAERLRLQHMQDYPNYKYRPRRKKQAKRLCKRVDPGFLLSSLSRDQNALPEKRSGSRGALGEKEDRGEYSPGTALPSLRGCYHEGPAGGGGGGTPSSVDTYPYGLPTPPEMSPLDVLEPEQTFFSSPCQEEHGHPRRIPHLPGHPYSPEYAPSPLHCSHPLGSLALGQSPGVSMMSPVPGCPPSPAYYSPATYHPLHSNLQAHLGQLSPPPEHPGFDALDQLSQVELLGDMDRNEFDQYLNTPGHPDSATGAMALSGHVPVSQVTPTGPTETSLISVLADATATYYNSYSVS

[2] = target: the molecule itself; test: number and brightness (N&B); living HeLa cell nuclei, 37°C; cells with low to medium expression, 1 μM JF549 Halo-tag dye; monomer brightness calibrated on HALO-SOX7

B1: HALO-SOX18 (protein)
chain: MQRSPPGYGAQDDPPSRRDCAWAPGIGAAAEARGLPVTNVSPTSPASPSSLPRSPPRSPESGRYGFGRGERQTADELRIRRPMNAFMVWAKDERKRLAQQNPDLHNAVLSKMLGKAWKELNTAEKRPFVEEAERLRVQHLRDHPNYKYRPRRKKQARKVRRLEPGLLLPGLVQPSAPPEAFAAASGSARSFRELPTLGAEFDGLGLPTPERSPLDGLEPGEASFFPPPLAPEDCALRAFRAPYAPELARDPSFCYGAPLAEALRTAPPAAPLAGLYYGTLGTPGPFPNPLSPPPESPSLEGTEQLEPTADLWADVDLTEFDQYLNCSRTRPDATTLPYHVALAKLGPRAMSCPEESSLISALSDASSAVYYSACISG
[1]
  percent heterodimer: SOX7/SOX18 (18.5%)

B2: HALO-SOX18 (natural protein, UniProt P43680 1-377, looked up)
chain: B1 chain
modifications: JF549 and/or JF646 Halo-tag dye on the HaloTag
notes: SOX18 wild type from the plasmid pReceiver-M49(HaloTag-SOX18) of GeneCopoeia; In the functional row with MEF2C the protein was untagged-SOX18 from the same plasmid without the HaloTag; also called HaloTag-SOX18; pReceiver-M49(HaloTag-SOX18); source: HeLa, transiently transfected, in living cells
[2]
  stoichiometry N: 2
